Source: the supplement of paper PMC7877785
± gives the uncertainty stated by the source.

Assay: self-splicing fitness, log relative to wild type (ln ratio); higher = more splicing; Tetrahymena group I intron in knt gene, E. coli kanamycin selection, DiMSum; sequences stand for … in CUCUCU…GGAGGGAAAAGUUAUCAGGCAUGCACCUGGUAGCUAGUCUUUAAACCAAUAGAUUGCAUCGGUUUAAAAGGCAAGACCGUCAAAUUGCGGGAAAGGGGUCAACAGCCGUUCAGUACCAAGUCUCAGGGGAAACUUUGAGAUGGCCUUGCAAAGGGUAUGGUAAUAAGCUGACGGACAUGGUCCUAACCACGCAGCCAAGUCCUAAGUCAACAGAUCUUCUGUUGAUAUGGAUGCAGUUCACAGACUAAAUGUCGGUCGGGGAAGAUGUAUUCUUCUCAUAAGAUAUAGUCGGACCUCUCCUUAAUGGGAGCUAGCGGAUGAAGUGAUGCAACACUGGAGCCGCUGGGAACUAAUUUGUAUGCGAAAGUAUAUUGAUUAGUUUUGGAGUACUCGUGGUCG
Method in brief: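 A randomised library covering all eight P1ex-region intron nucleotides was built with the intron in the knt kanamycin-resistance gene on pET-22b(+) and held in E. coli BL21(DE3). Cells were grown overnight at 37°C or 30°C on LB agar, with or without 25 μg/mL kanamycin, plus 100 μg/mL carbenicillin, 50 μM IPTG and 0.2% rhamnose, and pooled colonies were amplicon-sequenced on an Illumina HiSeq 2500. DiMSum fitness is the error-weighted combination of wild-type-normalised replicate fold changes, kanamycin versus none.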

| Sequence | self-splicing fitness (ln) (30 °C) | self-splicing fitness (ln) (37 °C) |
| --- | --- | --- |
| AUUGAGCAAUAUUACGGAAA | -2.56 ± 0.3 | -1.7 ± 0.25 |
| AUUGAGCAAUAUUACGGAGA | – | -1.85 ± 0.47 |
| AUUGAGCAAUAUUACGGGCG | – | -2.13 ± 0.34 |
| AUUGAGCAAUAUUACGGUCG | -2.92 ± 0.36 | -2.52 ± 0.45 |
| AUUGAGCAAUAUUACGGUGG | -3.84 ± 0.46 | -1.27 ± 0.15 |
| AUUGAGCAAUAUUACGUAAA | -1.7 ± 0.15 | -2.91 ± 0.34 |
| AUUGAGCAAUAUUACGUCCU | -2.41 ± 0.19 | -0.811 ± 0.15 |
| AUUGAGCAAUAUUACGUCUG | -3.22 ± 0.21 | -3 ± 0.26 |
| AUUGAGCAAUAUUACGUUGU | -3.5 ± 0.14 | -2.1 ± 0.16 |
| AUUUAGCAAUAUUACGAAGC | -2.88 ± 0.23 | -3.6 ± 0.46 |
| AUUUAGCAAUAUUACGAGCA | -1.66 ± 0.25 | -1.01 ± 0.18 |
| AUUUAGCAAUAUUACGAUAU | -1.34 ± 0.097 | -0.998 ± 0.11 |
| AUUUAGCAAUAUUACGAUGC | -1.98 ± 0.23 | -0.497 ± 0.21 |
| AUUUAGCAAUAUUACGCAUA | -2.26 ± 0.12 | -1.18 ± 0.12 |
| AUUUAGCAAUAUUACGCGAC | -2.16 ± 0.27 | -2.87 ± 0.47 |
| AUUUAGCAAUAUUACGGCAU | -0.0305 ± 0.11 | -0.15 ± 0.18 |
| AUUUAGCAAUAUUACGGGGU | -3.47 ± 0.26 | -2.32 ± 0.19 |
| AUUUAGCAAUAUUACGGUAC | – | -1.07 ± 0.33 |
| AUUUAGCAAUAUUACGGUAG | -3.72 ± 0.27 | -2.03 ± 0.21 |
| AUUUAGCAAUAUUACGUCGU | -1.7 ± 0.11 | -1.33 ± 0.1 |
| AUUUAGCAAUAUUACGUGCU | -2.78 ± 0.11 | -0.856 ± 0.1 |
| AUUUAGCAAUAUUACGUUAC | -2.76 ± 0.33 | -2 ± 0.27 |

| Sequence | self-splicing fitness (ln) (30 °C) | self-splicing fitness (ln) (37 °C) |
| --- | --- | --- |
| AUUUAGCAAUAUUACGUUAU | -2.2 ± 0.2 | -1.95 ± 0.24 |
| CAAAAGCAAUAUUACGAAUA | -2.77 ± 0.16 | -1.5 ± 0.15 |
| CAAAAGCAAUAUUACGAGGC | -4.77 ± 0.39 | -2.34 ± 0.18 |
| CAAAAGCAAUAUUACGAGUA | -3.32 ± 0.14 | -1.89 ± 0.11 |
| CAAAAGCAAUAUUACGAGUG | -0.995 ± 0.058 | -0.101 ± 0.075 |
| CAAAAGCAAUAUUACGAUAC | -2.95 ± 0.15 | -2.53 ± 0.2 |
| CAAAAGCAAUAUUACGCAAU | -4.03 ± 0.3 | -1.93 ± 0.24 |
| CAAAAGCAAUAUUACGCCUA | -2.75 ± 0.27 | -1.51 ± 0.17 |
| CAAAAGCAAUAUUACGCGCG | -0.71 ± 0.082 | -0.59 ± 0.09 |
| CAAAAGCAAUAUUACGCGUA | -2.01 ± 0.12 | -1.32 ± 0.11 |
| CAAAAGCAAUAUUACGCUCC | -2.23 ± 0.22 | -1.99 ± 0.29 |
| CAAAAGCAAUAUUACGCUCU | -1.6 ± 0.12 | -1.63 ± 0.16 |
| CAAAAGCAAUAUUACGGAAA | -2.67 ± 0.5 | -2.08 ± 0.3 |
| CAAAAGCAAUAUUACGGAAC | -2.55 ± 0.15 | -2.87 ± 0.27 |
| CAAAAGCAAUAUUACGGACU | -2.38 ± 0.12 | -1.46 ± 0.12 |
| CAAAAGCAAUAUUACGGUCC | -3.68 ± 0.29 | -1.88 ± 0.21 |
| CAAAAGCAAUAUUACGGUCG | 0.0608 ± 0.056 | -0.107 ± 0.063 |
| CAAAAGCAAUAUUACGGUCU | -3.38 ± 0.13 | -1.1 ± 0.086 |
| CAAAAGCAAUAUUACGGUGA | -1.57 ± 0.096 | -1.62 ± 0.1 |
| CAAAAGCAAUAUUACGUAGA | -1.88 ± 0.078 | -1.97 ± 0.12 |
| CAAAAGCAAUAUUACGUCCU | -2.18 ± 0.087 | -0.725 ± 0.09 |
